The results in this text go back to paper PMC4045628 (CellBio, 2014).

Assay [1] deals with HA-tagged kinase-inactive PKC iota (UniProt P41743). Nature of the assay: co-IP.
The target of assay [2] is T1, HA-tagged wild-type PKC iota (UniProt P41743 1-596).
T1 sequence (looked up): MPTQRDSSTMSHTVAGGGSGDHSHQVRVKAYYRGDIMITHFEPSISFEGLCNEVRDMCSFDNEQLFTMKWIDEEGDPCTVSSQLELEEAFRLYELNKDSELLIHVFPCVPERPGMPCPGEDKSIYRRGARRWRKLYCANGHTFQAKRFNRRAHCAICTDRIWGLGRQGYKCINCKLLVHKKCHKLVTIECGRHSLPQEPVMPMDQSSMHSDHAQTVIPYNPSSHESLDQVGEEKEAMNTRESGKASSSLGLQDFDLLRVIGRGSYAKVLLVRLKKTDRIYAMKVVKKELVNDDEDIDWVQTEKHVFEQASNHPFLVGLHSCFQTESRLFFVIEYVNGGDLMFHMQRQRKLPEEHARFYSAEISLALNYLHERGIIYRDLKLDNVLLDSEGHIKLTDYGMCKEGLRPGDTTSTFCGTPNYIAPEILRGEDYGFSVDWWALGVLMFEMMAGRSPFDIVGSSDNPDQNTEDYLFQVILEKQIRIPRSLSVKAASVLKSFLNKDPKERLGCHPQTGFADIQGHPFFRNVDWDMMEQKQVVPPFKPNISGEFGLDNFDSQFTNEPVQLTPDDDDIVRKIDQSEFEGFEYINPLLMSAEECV
Nature of the assay: co-IP.

B1: PAR-6B (natural protein, rat (endogenous in PC12), UniProt D4A2F2 1-372, looked up)
chain: MNRGHRHGVSSGCLGTMEVKSKFGAEFRRFSLERSKPGKFEEFYGLLQHVHKIPNVDVLVGYADIHGDLLPINNDDNYHKAVSTANPLLRVFIQKKEEADYSAFGTDTLIRKKNVLSNVLRPDNHRKKPHIVISMPQDFRPVSSIIDVDILPETHRRVRLYKYGTEKPLGFYIRDGSSVRVTPHGLEKVPGIFISRLVPGGLAQSTGLLAVNDEVLEVNGIEVSGKSLDQVTDMMIANSRNLIITVRPANQRNNVVRNSRTSGSSGQSTDNSLLGYPQQAGASLEPEDQDSDEDDIIIEGSGEPQQIPKATPEALSLESLTQIELSFESGQNGFSPLQDTSLVAVPSSLDTESESRAPDQKLLEEDGTIITL
Regarding B1, the fold co-immunoprecipitated relative to PAR-3 was 10 fold in assay [1] and roughly 10 fold in assay [2].
